Test results: the supplement of paper PMC10065799, “High-throughput profiling of sequence recognition by tyrosine kinases and SH2 domains using bacterial peptide display” (eLife, 2023)

Legend:
SHP2-C SH2 = assay: SH2 binding enrichment of the phosphorylated peptide, bacterial display (enrichment ratio); higher = better substrate or ligand; peptides without Tyr show the background
c-Src SH2 = assay: as above
Grb2 SH2 = Grb2 SH2 (UniProt P62993); assay: as above
Fyn = Fyn (UniProt P06241); assay: phosphorylation enrichment, bacterial display (enrichment ratio); higher = better substrate or ligand; peptides without Tyr show the background
FGFR3 = FGFR3 (UniProt P22607); assay: as above
c-Abl (mouse) = assay: as above
EPHB1 = EPHB1 (UniProt P54762); assay: as above
Jak2 = Jak2 (UniProt O60674); assay: as above
Hck = Hck (UniProt P08631); assay: as above
EPHB2 = EPHB2 (UniProt P29323); assay: as above
c-Src = assay: as above
Fer (mouse) = assay: as above
AncSZ = assay: as above
MERTK = MERTK (UniProt Q12866); assay: as above
Fes = Fes (UniProt P07332); assay: as above
FGFR1 = FGFR1 (UniProt P11362); assay: as above
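Wherever SH2 binding enrichment of the phosphorylated peptide, bacterial display is given: peptide library displayed on the E. coli surface as eCPX fusions, selected cells deep-sequenced, score is each peptide's frequency after selection divided by its frequency in the input.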
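Wherever phosphorylation enrichment, bacterial display is given: 11-residue human phosphosite peptides and single-mutation variants displayed on the E. coli surface, counted by deep sequencing, each peptide's frequency after selection divided by its frequency in the unselected input library; frequency after pTyr selection over input frequency; kinase dosed for 20-30% of maximal phosphorylation in three min.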

Chain of Hck (P08631 whole entry, looked up): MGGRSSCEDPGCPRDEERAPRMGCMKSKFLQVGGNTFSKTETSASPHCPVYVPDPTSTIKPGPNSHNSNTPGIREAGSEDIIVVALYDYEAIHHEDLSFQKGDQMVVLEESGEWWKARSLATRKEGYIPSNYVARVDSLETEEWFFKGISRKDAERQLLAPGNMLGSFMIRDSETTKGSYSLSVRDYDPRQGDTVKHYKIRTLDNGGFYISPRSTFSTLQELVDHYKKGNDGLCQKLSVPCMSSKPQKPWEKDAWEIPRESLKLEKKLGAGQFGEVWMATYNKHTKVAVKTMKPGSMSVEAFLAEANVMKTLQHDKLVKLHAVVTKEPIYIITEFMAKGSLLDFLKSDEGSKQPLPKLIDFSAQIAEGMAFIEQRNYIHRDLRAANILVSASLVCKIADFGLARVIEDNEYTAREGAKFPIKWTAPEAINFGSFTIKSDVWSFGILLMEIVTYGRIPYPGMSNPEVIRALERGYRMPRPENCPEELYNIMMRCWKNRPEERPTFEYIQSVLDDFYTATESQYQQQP
Chain of EPHB2 (P29323 whole entry, looked up): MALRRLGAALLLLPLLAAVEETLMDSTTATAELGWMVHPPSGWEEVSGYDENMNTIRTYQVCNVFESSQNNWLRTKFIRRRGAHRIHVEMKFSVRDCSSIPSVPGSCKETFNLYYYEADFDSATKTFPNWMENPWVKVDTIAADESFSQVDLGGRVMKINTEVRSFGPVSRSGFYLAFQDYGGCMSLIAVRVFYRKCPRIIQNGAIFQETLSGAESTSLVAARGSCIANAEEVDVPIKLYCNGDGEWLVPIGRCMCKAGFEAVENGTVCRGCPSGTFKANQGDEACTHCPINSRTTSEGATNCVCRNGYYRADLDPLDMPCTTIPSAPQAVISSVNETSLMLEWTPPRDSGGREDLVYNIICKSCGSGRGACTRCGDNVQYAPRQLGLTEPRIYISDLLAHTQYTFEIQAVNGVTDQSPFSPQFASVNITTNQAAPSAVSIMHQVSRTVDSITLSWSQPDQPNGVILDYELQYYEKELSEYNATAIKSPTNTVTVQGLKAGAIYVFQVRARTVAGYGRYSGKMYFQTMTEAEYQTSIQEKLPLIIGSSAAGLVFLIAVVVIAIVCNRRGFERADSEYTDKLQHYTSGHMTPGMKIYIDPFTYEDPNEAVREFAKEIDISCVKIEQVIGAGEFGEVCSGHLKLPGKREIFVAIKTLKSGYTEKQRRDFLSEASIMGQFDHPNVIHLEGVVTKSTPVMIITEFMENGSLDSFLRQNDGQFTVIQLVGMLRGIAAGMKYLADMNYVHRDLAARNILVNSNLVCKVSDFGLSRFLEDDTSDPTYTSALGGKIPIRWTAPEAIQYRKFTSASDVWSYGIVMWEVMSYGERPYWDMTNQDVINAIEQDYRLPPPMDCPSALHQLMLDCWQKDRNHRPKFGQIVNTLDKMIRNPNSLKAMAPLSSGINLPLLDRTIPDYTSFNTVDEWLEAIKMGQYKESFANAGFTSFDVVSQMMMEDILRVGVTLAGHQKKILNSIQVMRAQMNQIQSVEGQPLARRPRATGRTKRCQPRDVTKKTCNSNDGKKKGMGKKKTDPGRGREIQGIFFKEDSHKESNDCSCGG
Chain of FGFR3 (P22607 whole entry, looked up): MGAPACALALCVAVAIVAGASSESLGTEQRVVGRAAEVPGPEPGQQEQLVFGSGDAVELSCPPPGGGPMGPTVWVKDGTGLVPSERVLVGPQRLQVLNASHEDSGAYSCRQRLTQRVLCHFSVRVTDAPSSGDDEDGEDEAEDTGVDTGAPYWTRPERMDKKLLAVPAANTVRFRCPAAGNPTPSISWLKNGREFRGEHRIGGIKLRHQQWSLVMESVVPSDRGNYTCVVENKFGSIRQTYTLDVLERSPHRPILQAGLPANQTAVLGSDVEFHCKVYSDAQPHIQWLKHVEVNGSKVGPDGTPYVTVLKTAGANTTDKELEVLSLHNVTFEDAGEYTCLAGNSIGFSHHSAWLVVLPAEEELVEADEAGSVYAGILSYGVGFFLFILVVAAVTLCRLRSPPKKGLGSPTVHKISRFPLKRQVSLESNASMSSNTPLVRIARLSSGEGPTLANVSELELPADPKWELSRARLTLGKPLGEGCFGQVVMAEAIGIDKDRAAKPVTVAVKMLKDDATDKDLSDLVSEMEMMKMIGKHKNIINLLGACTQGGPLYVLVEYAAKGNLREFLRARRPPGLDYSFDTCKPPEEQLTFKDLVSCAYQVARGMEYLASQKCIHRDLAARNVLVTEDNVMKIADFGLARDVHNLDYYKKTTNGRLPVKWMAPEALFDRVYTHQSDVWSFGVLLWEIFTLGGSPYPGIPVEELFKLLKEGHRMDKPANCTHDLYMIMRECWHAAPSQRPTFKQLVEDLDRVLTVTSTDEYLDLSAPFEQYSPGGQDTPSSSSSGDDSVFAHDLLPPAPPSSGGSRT
Chain of Fes (P07332 whole entry, looked up): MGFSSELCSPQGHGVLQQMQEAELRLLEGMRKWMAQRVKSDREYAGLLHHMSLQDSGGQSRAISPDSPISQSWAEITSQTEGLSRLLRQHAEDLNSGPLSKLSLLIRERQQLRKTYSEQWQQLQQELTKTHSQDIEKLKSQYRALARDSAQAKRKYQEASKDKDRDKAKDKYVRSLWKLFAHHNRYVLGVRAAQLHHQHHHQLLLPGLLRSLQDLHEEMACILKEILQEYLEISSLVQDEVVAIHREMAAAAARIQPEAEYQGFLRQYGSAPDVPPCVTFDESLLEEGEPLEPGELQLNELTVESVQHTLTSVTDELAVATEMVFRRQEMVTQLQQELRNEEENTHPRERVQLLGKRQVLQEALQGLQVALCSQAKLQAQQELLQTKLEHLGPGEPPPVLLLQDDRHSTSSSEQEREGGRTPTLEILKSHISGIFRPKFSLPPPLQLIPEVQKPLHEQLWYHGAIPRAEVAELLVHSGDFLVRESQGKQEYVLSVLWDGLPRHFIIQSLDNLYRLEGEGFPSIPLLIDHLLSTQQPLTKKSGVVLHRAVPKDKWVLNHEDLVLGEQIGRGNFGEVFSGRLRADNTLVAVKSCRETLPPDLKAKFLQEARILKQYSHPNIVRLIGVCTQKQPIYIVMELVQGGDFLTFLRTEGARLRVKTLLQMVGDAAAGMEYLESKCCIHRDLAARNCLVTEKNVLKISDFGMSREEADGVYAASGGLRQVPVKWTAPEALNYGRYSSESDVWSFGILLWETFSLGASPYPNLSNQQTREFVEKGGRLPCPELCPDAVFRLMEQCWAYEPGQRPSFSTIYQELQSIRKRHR
Chain of FGFR1 (P11362 whole entry, looked up, the tested form may be a part): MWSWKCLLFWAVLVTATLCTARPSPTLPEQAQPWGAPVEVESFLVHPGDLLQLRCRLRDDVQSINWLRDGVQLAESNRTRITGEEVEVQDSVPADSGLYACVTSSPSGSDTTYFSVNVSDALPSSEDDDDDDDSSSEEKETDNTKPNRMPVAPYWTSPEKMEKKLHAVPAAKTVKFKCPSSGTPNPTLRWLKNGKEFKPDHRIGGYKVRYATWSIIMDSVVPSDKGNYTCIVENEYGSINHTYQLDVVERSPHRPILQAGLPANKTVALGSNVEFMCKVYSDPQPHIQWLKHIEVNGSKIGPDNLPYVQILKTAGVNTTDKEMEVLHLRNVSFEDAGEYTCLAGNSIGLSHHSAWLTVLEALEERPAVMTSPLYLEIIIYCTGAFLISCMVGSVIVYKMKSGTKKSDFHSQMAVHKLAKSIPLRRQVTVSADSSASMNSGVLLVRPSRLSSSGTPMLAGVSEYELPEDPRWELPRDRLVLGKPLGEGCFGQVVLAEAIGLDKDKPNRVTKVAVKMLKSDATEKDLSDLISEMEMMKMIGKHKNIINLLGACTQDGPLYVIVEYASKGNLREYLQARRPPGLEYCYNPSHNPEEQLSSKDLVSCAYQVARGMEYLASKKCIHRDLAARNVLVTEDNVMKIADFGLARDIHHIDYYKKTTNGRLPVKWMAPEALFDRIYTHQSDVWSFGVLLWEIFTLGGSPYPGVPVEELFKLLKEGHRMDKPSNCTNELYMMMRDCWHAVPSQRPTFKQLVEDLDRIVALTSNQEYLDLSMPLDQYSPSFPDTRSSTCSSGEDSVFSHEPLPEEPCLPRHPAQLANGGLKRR
Chain of Fyn (P06241 whole entry, looked up): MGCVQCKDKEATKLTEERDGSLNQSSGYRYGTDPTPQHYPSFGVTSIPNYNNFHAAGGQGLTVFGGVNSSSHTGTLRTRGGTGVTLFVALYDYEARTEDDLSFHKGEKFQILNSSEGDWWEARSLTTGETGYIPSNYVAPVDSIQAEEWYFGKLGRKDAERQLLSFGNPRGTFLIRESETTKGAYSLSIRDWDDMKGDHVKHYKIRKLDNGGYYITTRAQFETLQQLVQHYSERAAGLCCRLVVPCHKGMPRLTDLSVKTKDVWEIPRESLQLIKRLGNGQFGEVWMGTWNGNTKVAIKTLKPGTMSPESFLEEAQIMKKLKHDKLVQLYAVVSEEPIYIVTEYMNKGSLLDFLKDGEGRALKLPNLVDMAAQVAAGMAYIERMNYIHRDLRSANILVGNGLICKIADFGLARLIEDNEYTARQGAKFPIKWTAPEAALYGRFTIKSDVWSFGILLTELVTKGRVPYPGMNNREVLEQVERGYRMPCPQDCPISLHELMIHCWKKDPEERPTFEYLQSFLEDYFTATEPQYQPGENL

| Sequence | SH2 binding enrichment (SHP2-C SH2) | SH2 binding enrichment (c-Src SH2) | SH2 binding enrichment (Grb2 SH2) | phosphorylation enrichment (Fyn) | phosphorylation enrichment (FGFR3) | phosphorylation enrichment (c-Abl (mouse)) | phosphorylation enrichment (EPHB1) | phosphorylation enrichment (Jak2) | phosphorylation enrichment (Hck) | phosphorylation enrichment (EPHB2) | phosphorylation enrichment (c-Src) | phosphorylation enrichment (Fer (mouse)) | phosphorylation enrichment (AncSZ) | phosphorylation enrichment (MERTK) | phosphorylation enrichment (Fes) | phosphorylation enrichment (FGFR1) |
| --- | --- | --- | --- | --- | --- | --- | --- | --- | --- | --- | --- | --- | --- | --- | --- | --- |
| SVDRDYVLKSA [HTATIP2_Y111_R106S] | 0.927 | 0.387 | 0.74 | 0.439 | 0.54 | 0.699 | 0.546 | 0.571 | 0.399 | 0.403 | 0.426 | 0.403 | 0.66 | 0.4 | 0.755 | 0.487 |
| VNFGAYINFFK [GLB1_Y488_D491Y_YF] | 0.784 | 0.611 | 0.918 | 0.441 | 0.963 | 1.49 | 0.586 | 1.87 | 0.495 | 0.558 | 0.717 | 0.624 | 1.38 | 0.57 | 1.75 | 0.663 |
| YSMGCYEFSLG [HMGCL_Y198_I200F] | 0.864 | 0.701 | 0.8 | 2.12 | 1.37 | 0.864 | 1.52 | 1.06 | 1.25 | 1.37 | 2.37 | 4.95 | 2.47 | 3.64 | 1.39 | 1.23 |
| EIHTQYEAMAS [GFAP_Y242_R239H] | 0.487 | 2.9 | 0.885 | 0.514 | 0.491 | 0.42 | 0.386 | 0.642 | 0.539 | 0.566 | 0.383 | 0.677 | 0.712 | 0.428 | 0.753 | 0.527 |
| SIKDKHVTALY [KCNH2_Y611_Y611H] | 0.572 | 0.497 | 0.899 | 0.409 | 0.405 | 0.529 | 0.387 | 0.43 | 0.397 | 0.405 | 0.44 | 0.388 | 0.587 | 0.345 | 0.61 | 0.408 |
| KDHPDYKYPPR [SOX10_Y171_Q174P] | 0.961 | 0.637 | 1.08 | 0.438 | 0.522 | 0.515 | 0.355 | 0.462 | 0.381 | 0.392 | 0.4 | 0.345 | 0.612 | 0.331 | 0.601 | 0.549 |
| VYAADYYKLLG [ROR2_Y645] | 0.46 | 0.789 | 0.981 | 1.01 | 10.1 | 1.99 | 2.38 | 7.96 | 1.28 | 1.78 | 2.26 | 0.516 | 1.28 | 5.31 | 0.944 | 12.8 |

Now from value to sequence, other results behind:

| SH2 binding enrichment (SHP2-C SH2) | SH2 binding enrichment (c-Src SH2) | SH2 binding enrichment (Grb2 SH2) | Sequence | phosphorylation enrichment (Fyn) | phosphorylation enrichment (FGFR3) | phosphorylation enrichment (c-Abl (mouse)) | phosphorylation enrichment (EPHB1) | phosphorylation enrichment (Jak2) | phosphorylation enrichment (Hck) | phosphorylation enrichment (EPHB2) | phosphorylation enrichment (c-Src) | phosphorylation enrichment (Fer (mouse)) | phosphorylation enrichment (AncSZ) | phosphorylation enrichment (MERTK) | phosphorylation enrichment (Fes) | phosphorylation enrichment (FGFR1) |
| --- | --- | --- | --- | --- | --- | --- | --- | --- | --- | --- | --- | --- | --- | --- | --- | --- |
| 0.813 | 0.982 | 1.11 | DCAAIYGNEPD [AKR1A1_Y50_E55D] | 1.02 | 0.957 | 0.978 | 0.668 | 1.25 | 1.09 | 0.726 | 1.65 | 0.672 | 1.35 | 0.585 | 1.64 | 0.638 |
| 1.05 | 0.853 | 1.34 | RQQEVYLLFKQ [RARRES1_Y159_D158V_YF] | 0.892 | 1.19 | 1.64 | 0.915 | 1.37 | 0.66 | 0.589 | 0.788 | 0.576 | 1.57 | 0.478 | 1.48 | 0.789 |
| 0.464 | 0.469 | 1.09 | ARRMEYLASQK [FGFR2_Y616_G613R] | 0.367 | 0.437 | 0.286 | 0.947 | 0.367 | 0.333 | 0.558 | 0.382 | 0.293 | 0.461 | 0.402 | 0.557 | 0.372 |
| 0.873 | 1.65 | 0.934 | CTTIHYNYMSN [TP53_Y234_C238S] | 0.396 | 0.629 | 0.501 | 0.503 | 0.756 | 0.434 | 0.594 | 0.399 | 0.664 | 0.793 | 0.502 | 0.844 | 0.499 |
| 0.648 | 0.579 | 0.792 | PIPAAYNRFDQ [CDC73_Y290_YF] | 0.451 | 0.643 | 0.357 | 0.643 | 0.833 | 0.446 | 0.426 | 0.303 | 0.485 | 0.513 | 0.509 | 0.778 | 0.456 |
| 0.557 | 0.431 | 0.997 | LIGRRCDDPEV [HSPA9_Y128_Y128C] | 1.12 | 1.03 | 1 | 0.782 | 1.41 | 0.575 | 0.623 | 0.722 | 0.666 | 1.76 | 0.582 | 1.51 | 0.697 |
| 0.671 | 0.495 | 0.801 | TFGVVYKARNK [CDK2_Y19_YF] | 0.422 | 0.694 | 0.565 | 0.439 | 0.805 | 0.39 | 0.518 | 0.346 | 0.481 | 0.928 | 0.321 | 0.917 | 0.587 |
